In this assay the target is human CD44v6 (CD44 splice variant containing the domain v6) on antigen-positive FaDu cells (human) (UniProt P16070). The assay can be described thus: flow cytometry (FACS) on FaDu cells, FITC-labeled anti-human IgG detection, on ice.
Chain of UniProt P16070 (P16070 21-742, change not shown): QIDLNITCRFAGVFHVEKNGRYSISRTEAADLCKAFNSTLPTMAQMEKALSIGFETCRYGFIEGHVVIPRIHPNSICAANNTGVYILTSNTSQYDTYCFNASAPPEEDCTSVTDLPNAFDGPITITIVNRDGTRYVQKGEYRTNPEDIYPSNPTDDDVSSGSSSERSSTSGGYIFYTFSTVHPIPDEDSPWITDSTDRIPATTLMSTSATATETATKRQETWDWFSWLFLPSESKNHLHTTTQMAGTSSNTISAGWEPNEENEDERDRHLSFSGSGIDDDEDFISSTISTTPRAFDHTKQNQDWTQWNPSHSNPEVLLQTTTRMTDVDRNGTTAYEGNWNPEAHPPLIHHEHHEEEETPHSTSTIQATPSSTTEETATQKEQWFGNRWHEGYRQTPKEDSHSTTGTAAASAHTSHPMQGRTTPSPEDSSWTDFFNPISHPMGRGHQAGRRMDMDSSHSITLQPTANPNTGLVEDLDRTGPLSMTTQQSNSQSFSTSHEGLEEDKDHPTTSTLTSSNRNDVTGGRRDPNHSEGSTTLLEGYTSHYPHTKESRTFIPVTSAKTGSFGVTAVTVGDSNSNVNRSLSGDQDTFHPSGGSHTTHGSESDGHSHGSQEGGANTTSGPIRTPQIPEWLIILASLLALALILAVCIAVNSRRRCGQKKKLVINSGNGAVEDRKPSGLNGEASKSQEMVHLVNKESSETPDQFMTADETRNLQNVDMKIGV

B1: BIWA 4 (antibody, human IgG1, kappa, V domains shown)
VH: EVQLVESGGGLVKPGGSLRLSCAASGFTFSSYDMSWVRQAPGKGLEWVSTISSGGSYTYYLDSIKGRFTISRDNAKNSLYLQMNSLRAEDTAVYYCARQGLDYWGRGTLVTVSS
VL: EIVLTQSPATLSLSPGERATLSCSASSSINYIYWYQQKPGQAPRLLIYLTSNLASGVPARFSGSGSGTDFTLTISSLEPEDFAVYYCLQWSSNPLTFGGGTKVEIKR
B1 came in with a Kd of 1 nM.

B2: BIWI 1 (antibody, human IgG1, kappa, V domains shown)
VH: EVQLVESGGGLVKPGGSLRLSCAASGFTFSSYDMSWVRQAPGKGLEWVSTISSGGSYTYYLDSIKGRFTISRDNAKNSLYLQMNSLRAEDTAVYYCARQGLDYWGRGTLVTVSS
VL: EIVLTQSPATLSLSPGERATLSCSASSSINYIYWYQQKPGQAPRLLIYLTSNLASGVPARFSGSGSGTDFTLTISSLEPEDFAVYYCLQWSSNPLTFGGGTKVEIKR
modifications: maytansinoid DM1 linked by a disulfide bond through the SPP-derived thiopentanoate linker; DM1/MAb ratio 3.1 (average for the whole antibody); attachment residues not stated
The molecule B2 gave a Kd of 1.8 nM. Against the preceding molecule, the Kd is about 1.8-fold higher.

A word on the Kd: it is the free concentration of one partner at which half of the binding sites on the other are occupied at equilibrium, for simple one-to-one binding.

For the origin of these results see patent EP1391213A1.
